We go through four sequences from the supplement of paper PMC5998384.

The test system of data set [1] is HeLa Kyoto. Put plainly: solubility in G1/S (NP-40 vs SDS abundance) (log2 ratio); higher = more soluble. Particulars: cell cycle stage: G1/S.
Data set [2] relates to HeLa Kyoto. The data set is described as follows: melting temperature (median over replicates), in situ; higher = more thermally stable.
Data set [3] has as its system HeLa Kyoto. The data set is described as follows: solubility change mitosis vs G1/S (difference of NP-40 vs SDS log2 ratios) (log2 ratio difference); higher = more soluble in mitosis.
The subject of data set [4] is HeLa Kyoto. Put plainly: thermal stability score vs G1/S (z-score of summed log2 fold changes over temperatures); higher = more thermally stable than in G1/S.
Setting [5] is: cell cycle stage: early G1 (4.5 h after nocodazole release).
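For melting temperature (median over replicates), in situ in this document: HeLa Kyoto cells synchronized by double thymidine or nocodazole block, proteins quantified by TMT10plex mass spectrometry, three independent biological replicates.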
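For solubility change mitosis vs G1/S (difference of NP-40 vs SDS log2 ratios) in this document: synchronized HeLa Kyoto cells (double thymidine block for G1/S, nocodazole release for mitosis), protein amounts in NP-40 versus SDS lysates quantified by mass spectrometry, three biological replicates.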
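For solubility in G1/S (NP-40 vs SDS abundance) in this document: HeLa Kyoto cells arrested at G1/S by double thymidine block, proteins quantified by TMT10plex mass spectrometry in mild NP-40 versus SDS extracts, three biological replicates.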
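For thermal stability score vs G1/S (z-score of summed log2 fold changes over temperatures) in this document: synchronized HeLa Kyoto cells, proteins quantified by TMT10plex mass spectrometry, three biological replicates, mitosis taken 0.5 h after nocodazole release, G1/S directly after double thymidine block.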

Consider “MPALSTGSGSDTGLYELLAALPAQLQPHVDSQEDLTFLWDMFGEKSLHSLVKIHEKLHYYEKQSPVPILHGAAALADDLAEELQNKPLNSEIRELLKLLSKPNVKALLSVHDTVAQKNYDPVLPPMPEDIDDEEDSVKIIRLVKNREPLGATIKKDEQTGAIIVARIMRGGAADRSGLIHVGDELREVNGIPVEDKRPEEIIQILAQSQGAITFKIIPGSKEETPSKEGKMFIKALFDYNPNEDKAIPCKEAGLSFKKGDILQIMSQDDATWWQAKHEADANPRAGLIPSKHFQERRLALRRPEILVQPLKVSNRKSSGFRKSFRLSRKDKKTNKSMYECKKSDQYDTADVPTYEEVTPYRRQTNEKYRLVVLVGPVGVGLNELKRKLLISDTQHYGVTVPHTTRARRSQESDGVEYIFISKHLFETDVQNNKFIEYGEYKNNYYGTSIDSVRSVLAKNKVCLLDVQPHTVKHLRTLEFKPYVIFIKPPSIERLRETRKNAKIISSRDDQGAAKPFTEEDFQEMIKSAQIMESQYGHLFDKIIINDDLTVAFNELKTTFDKLETETHWVPVSWLHS [MPP7]”, for which, in the data set with HeLa Kyoto [1], the “solubility in G1/S (log2)” value was -0.0584. Further, the melting temperature was 47.8 °C with HeLa Kyoto [2] (cell cycle stage: G1/S) and 48.5 °C in the data set with HeLa Kyoto [2] (cell cycle stage: mitosis). In the data set with HeLa Kyoto [3], the “solubility change mitosis (log2)” value is 0.00867. For the same sequence, the thermal stability score with HeLa Kyoto [4] (setting [5]) was 0.55; in the data set with HeLa Kyoto [4] (cell cycle stage: mitosis), 1.76.

Take “MPAPTQLFFPLIRNCELSRIYGTACYCHHKHLCCSSSYIPQSRLRYTPHPAYATFCRPKENWWQYTQGRRYASTPQKFYLTPPQVNSILKANEYSFKVPEFDGKNVSSILGFDSNQLPANAPIEDRRSAATCLQTRGMLLGVFDGHAGCACSQAVSERLFYYIAVSLLPHETLLEIENAVESGRALLPILQWHKHPNDYFSKEASKLYFNSLRTYWQELIDLNTGESTDIDVKEALINAFKRLDNDISLEAQVGDPNSFLNYLVLRVAFSGATACVAHVDGVDLHVANTGDSRAMLGVQEEDGSWSAVTLSNDHNAQNERELERLKLEHPKSEAKSVVKQDRLLGLLMPFRAFGDVKFKWSIDLQKRVIESGPDQLNDNEYTKFIPPNYHTPPYLTAEPEVTYHRLRPQDKFLVLATDGLWETMHRQDVVRIVGEYLTGMHHQQPIAVGGYKVTLGQMHGLLTERRTKMSSVFEDQNAATHLIRHAVGNNEFGTVDHERLSKMLSLPEELARMYRDDITIIVVQFNSHVVGAYQNQE [PDP1]”: the “solubility in G1/S (log2)” value with HeLa Kyoto [1] was determined as 0.103. The figures for the melting temperature in the data set on HeLa Kyoto [2] (cell cycle stage: G1/S) and in the data set on HeLa Kyoto [2] (cell cycle stage: mitosis) were 52.7 °C and 51.6 °C, respectively. In addition, in the data set with HeLa Kyoto [3], the “solubility change mitosis (log2)” value is -0.0758. Moreover, the thermal stability score in the data set on HeLa Kyoto [4] (setting [5]) turned out to be 0.767; with HeLa Kyoto [4] (cell cycle stage: mitosis) it was 1.07.

For the sequence “MPAVASVPKELYLSSSLKDLNKKTEVKPEKISTKSYVHSALKIFKTAEECRLDRDEERAYVLYMKYVTVYNLIKKRPDFKQQQDYFHSILGPGNIKKAVEEAERLSESLKLRYEEAEVRKKLEEKDRQEEAQRLQQKRQETGREDGGTLAKGSLENVLDSKDKTQKSNGEKNEKCETKEKGAITAKELYTMMTDKNISLIIMDARRMQDYQDSCILHSLSVPEEAISPGVTASWIEAHLPDDSKDTWKKRGNVEYVVLLDWFSSAKDLQIGTTLRSLKDALFKWESKTVLRNEPLVLEGGYENWLLCYPQYTTNAKVTPPPRRQNEEVSISLDFTYPSLEESIPSKPAAQTPPASIEVDENIELISGQNERMGPLNISTPVEPVAASKSDVSPIIQPVPSIKNVPQIDRTKKPAVKLPEEHRIKSESTNHEQQSPQSGKVIPDRSTKPVVFSPTLMLTDEEKARIHAETALLMEKNKQEKELRERQQEEQKEKLRKEEQEQKAKKKQEAEENEITEKQQKAKEEMEKKESEQAKKEDKETSAKRGKEITGVKRQSKSEHETSDAKKSVEDRGKRCPTPEIQKKSTGDVPHTSVTGDSGSGKPFKIKGQPESGILRTGTFREDTDDTERNKAQREPLTRARSEEMGRIVPGLPSGWAKFLDPITGTFRYYHSPTNTVHMYPPEMAPSSAPPSTPPTHKAKPQIPAERDREPSKLKRSYSSPDITQAIQEEEKRKPTVTPTVNRENKPTCYPKAEISRLSASQIRNLNPVFGGSGPALTGLRNLGNTCYMNSILQCLCNAPHLADYFNRNCYQDDINRSNLLGHKGEVAEEFGIIMKALWTGQYRYISPKDFKITIGKINDQFAGYSQQDSQELLLFLMDGLHEDLNKADNRKRYKEENNDHLDDFKAAEHAWQKHKQLNESIIVALFQGQFKSTVQCLTCHKKSRTFEAFMYLSLPLASTSKCTLQDCLRLFSKEEKLTDNNRFYCSHCRARRDSLKKIEIWKLPPVLLVHLKRFSYDGRWKQKLQTSVDFPLENLDLSQYVIGPKNNLKKYNLFSVSNHYGGLDGGHYTAYCKNAARQRWFKFDDHEVSDISVSSVKSSAAYILFYTSLGPRVTDVAT [USP8]”, the “solubility in G1/S (log2)” value with HeLa Kyoto [1] was -0.121. For the same sequence, the melting temperature in the data set on HeLa Kyoto [2] (cell cycle stage: G1/S) turned out to be 49.2 °C; in the data set on HeLa Kyoto [2] (cell cycle stage: mitosis), 49.3 °C. Further, the “solubility change mitosis (log2)” value in the data set with HeLa Kyoto [3] was -0.0263. Further, the results for the thermal stability score in the data set on HeLa Kyoto [4] (setting [5]) and in the data set on HeLa Kyoto [4] (cell cycle stage: mitosis) were -0.07 and -0.00341, respectively.

Regarding “MPAVLGFEGSANKIGVGVVRDGKVLANPRRTYVTPPGTGFLPGDTARHHRAVILDLLQEALTESGLTSQDIDCIAYTKGPGMGAPLVSVAVVARTVAQLWNKPLVGVNHCIGHIEMGRLITGATSPTVLYVSGGNTQVIAYSEHRYRIFGETIDIAVGNCLDRFARVLKISNDPSPGYNIEQMAKRGKKLVELPYTVKGMDVSFSGILSFIEDVAHRMLATGECTPEDLCFSLQETVFAMLVEITERAMAHCGSQEALIVGGVGCNVRLQEMMATMCQERGARLFATDERFCIDNGAMIAQAGWEMFRAGHRTPLSDSGVTQRYRTDEVEVTWRD [OSGEP]”, in the data set on HeLa Kyoto [1], the “solubility in G1/S (log2)” value was determined as 0.0103. Further, the melting temperature in the data set on HeLa Kyoto [2] (cell cycle stage: G1/S) came to 55.5 °C; in the data set on HeLa Kyoto [2] (cell cycle stage: mitosis) it was 55.4 °C. The “solubility change mitosis (log2)” value in the data set with HeLa Kyoto [3] is -0.136. In addition, the figures for the thermal stability score with HeLa Kyoto [4] (setting [5]) and with HeLa Kyoto [4] (cell cycle stage: mitosis) were 0.00035 and -1.39, respectively.
